Experimental findings from IntAct's records for PubMed 20571511 are described below.

B1: Telomere length regulation protein ELG1 (Saccharomyces cerevisiae), Q12050 (parent)
chain: MKRHVSLSDILTGNKRKVRRQDALQITIDDENDTESGTFDARTAKHDDSSVIFLNHSVVKPIEAVSTNHKSAKEFLMTKRTKEKCDDDDDDLIVISDKSPKSETNCSKIALSQEHEDDISIISTSRIKSSLLNERASKIKNFLKHETTDTFKRLNSISKLNEIEPPLPLHQSIFPVGDKELSDRSVDIPLPFRTIPPLNHNFLPSDYESLKDKNSASCIPVRYQAPVLLGTNIKRNTTLTWPQLFKPVTLKQVLIEPKLKLRIKNWIETSFHTLEKPTLRNRLLNRINPNKQQGSGDELANFIVPDLEEDENLRPDFYRNGEANSSLSEFVPLMILHGNSIGKKTLIQTIMREIAGDDNSYQIYEVNSNMNRSKKDLLDILLDFTTTHYVKDSSKRKSDYGLVLFNDVDVLFKEHDRGYWAMISKLCEFSRRPLVLTCKDLSLVPSELIALASEQNSLFHTKKISTSTVYAFLTKYLKSLEIEVCDDWLRDVVKQNNADIRKCLMHLQFWCVDTEADLISSKNRLPVLTSTLGSSVKDISQLTDLLSINDVIGQATLNRSMVRQEIDSTTMTPEKVNTFQDQNLDDEMKLKFDYVIDYKLHLNDPNRQPLLPFELNIYQHIQEQLEARYSYVREANHRLDNEYLVNRFKKMTESTLNFLASRIPKYDHLQSARRTRNSKKISDILNQFKGIYNDETLNENAEIDLLSATTQQIKAEINPFVFEIAKSDANVKNENKQIFELHSENVSERRYKDLVYQLSQEGVLKNVWFNADPSIVVRKWEHLHSGFSKNK
B2: Proliferating cell nuclear antigen (Saccharomyces cerevisiae), P15873 (parent)
chain: MLEAKFEEASLFKRIIDGFKDCVQLVNFQCKEDGIIAQAVDDSRVLLVSLEIGVEAFQEYRCDHPVTLGMDLTSLSKILRCGNNTDTLTLIADNTPDSIILLFEDTKKDRIAEYSLKLMDIDADFLKIEELQYDSTLSLPSSEFSKIVRDLSQLSDSINIMITKETIKFVADGDIGSGSVIIKPFVDMEHPETSIKLEMDQPVDLTFGAKYLLDIIKGSSLSDRVGIRLSSEAPALFQFDLKSGFLQFFLAPKFNDEE
partner: B1 chain

The variants in the first assay derive from B1. To be noted: with pcna_yeast POL30, P15873.
I122A: the “effect of a mutation on the interaction” value is reported as “disrupting interaction”.

As for I28A, the “effect of a mutation on the interaction” value is listed as “disrupting interaction”.

Take I121A: the “effect of a mutation on the interaction” value is “disrupting interaction”.

For I93K, the “effect of a mutation on the interaction” value was “disrupting interaction”.

The next assay covers variants of B1. The following applies: with smt3_yeast SMT3, Q12306.
smt3_yeast SMT3, Q12306, sequence (Q12306 whole entry): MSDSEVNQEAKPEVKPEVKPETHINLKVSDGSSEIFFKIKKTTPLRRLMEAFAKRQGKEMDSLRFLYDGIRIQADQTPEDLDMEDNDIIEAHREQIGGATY
On to I122A, for which the “effect of a mutation on the interaction” value was “decreasing interaction”.

Take I28A: the “effect of a mutation on the interaction” value was “decreasing interaction”.

With I121A, the “effect of a mutation on the interaction” value was “decreasing interaction”.

Take I93K: the “effect of a mutation on the interaction” value is on record as “decreasing interaction”.

In another assay the parent is B1. To be noted: with smt3_yeast SMT3, Q12306. The source holds these as a separate data set.
For I122A, the “effect of a mutation on the interaction” value is “disrupting interaction”.

I28A: the “effect of a mutation on the interaction” value is reported as “disrupting interaction”.

As to I121A, the “effect of a mutation on the interaction” value is given as “disrupting interaction”.

As to I93K, the “effect of a mutation on the interaction” value was “disrupting interaction”.

In the next assay the parent is B1. To be noted: with pcna_yeast POL30, P15873. The source holds these as a separate data set.
Turning to V58A, the “effect of a mutation on the interaction” value is on record as “decreasing interaction”.

Regarding S57A, the “effect of a mutation on the interaction” value is “decreasing interaction”.

The next assay covers variants of B1. To be noted: with pcna_yeast POL30, P15873. The source holds these as a separate data set.
On to V59A, for which the “effect of a mutation on the interaction” value is “decreasing interaction”.

The next assay covers variants of B2. To be noted: with elg1_yeast ELG1, Q12050.
With K164R, the “effect of a mutation on the interaction” value is reported as “decreasing interaction”.
